Reference: US11583589B2, “Cell membrane penetrating conjugates” (priority 2017, dated 2023)

Test system: HeLa cells
Assay: Cellular uptake of NHS-coumarin labelled proteins, fluorescence microscopy
Type: cell-based
Experimental: Labelling of proteins with fluorescent dyes—Fluorescent dyes were considered as an example of a functional molecule for investigating the cell membrane penetration ability of the conjugate. Labelling of the recombinant protein with a dye was carried out by performing a series of reaction in dark conditions. The protein to be labelled was collected in PBS buffer (1× and pH 7.3) and the dye was collected at two to three times higher concentration to that of the protein. The protein was added to 0.1M sodium carbonate buffer (pH 8.5) followed by the dye. The dye was added very slowly (30 μl each time) to the buffer containing the protein kept on ice accompanied by occasional shaking. The resulting solution was wrapped with aluminium foil to keep away any light. The solution was stirred for 1 hour at room temperature and was then purified by gel filtration, i.e. passed through a desalting column or a PD 10 column with 1×PBS buffer. […]
Cellular uptake of labelled proteins—The uptake of labelled proteins was checked by treating mammalian cells with different labelled proteins such as AlbG (SEQ ID NO: 1), EfsQNR (SEQ ID NO: 2) and, as a comparative example, TtCuA (SEQ ID NO: 13). […] The cells were then washed twice, after 3 hours and 24 hours with HBSS (Hanks […] salt solution) or PBS and observed under fluorescence microscopy and/or confocal laser scanning microscope. […]

B1: TtCuA-NHSC: comparative example: TtCuA protein (SEQ ID NO: 13, Thermus thermophilus) labelled with NHS-coumarin dye (conjugate)
chain: AYTLATHTAGVIPAGKLERVDPTTVRQEGPWADPAQAVVQTGPNQYTVYVLAFAFGYQPNPIEVPQGAEIVFKITSPDVIHGFHVEGTNINVEVLPGEVSTVRYTFKRPGEYRIICNQYCGLGHQNMFGTIVVKE
modifications: NHS-coumarin dye label; Amino acid sequence of TtCuA protein
- fluorescence inside the cells (presence of conjugate inside the cells) (NHS-C labelled protein, Hoechst Blue co-stain): significantly less fluorescence
- cell penetration ability (cell uptake), compared between conjugates (NHS-C labelled proteins): not able to effectively penetrate the cell membrane
